Test results taken from patent US20210292396A1.

What was measured:
Assay in all cases: cell-based or functional assay
[1] = molecular target: Env of HIV isolate KER2008.12 (clade A) (HIV)
[2] = molecular target: Env of HIV isolate A07412M1.vrc12 (clade D) (HIV)
[3] = molecular target: Env of HIV isolate ZM109.4 (clade C) (HIV)
[4] = molecular target: Env of HIV isolate CNE7 (clade BC) (HIV)
[5] = molecular target: Env of HIV isolate BaL.26 (clade B) (HIV)
[6] = molecular target: Env of HIV isolate 191821.E6.1 (clade D) (HIV)
[7] = molecular target: Env of HIV isolate BJOX028000.10.3 (clade AE) (HIV)
[8] = molecular target: Env of HIV isolate BJOX025000.01.1 (clade AE) (HIV)
[9] = molecular target: Env of HIV isolate JRFL.JB (clade B) (HIV)
[10] = molecular target: Env of HIV isolate 3468.v1.c12 (clade AD) (HIV)
[11] = molecular target: Env of HIV isolate 620345.c1 (clade AE) (HIV)
[12] = molecular target: HIV Env of isolate CAP210.E8 (HIV)
[13] = molecular target: HIV Env of isolate 25710-2.43 (HIV)
[14] = molecular target: Env of HIV isolate 89.6.DG (clade B) (HIV)
[15] = molecular target: 208-member cross-clade virus panel
[16] = molecular target: HIV Env of isolate CNE31 (HIV)
[17] = molecular target: HIV Env of isolate ZM215.8 (HIV)
[18] = molecular target: Env of HIV isolate 0330.v4.c3 (clade A) (HIV)
[19] = molecular target: Env of HIV isolate 6644.v2.c33 (clade C) (HIV)
[20] = molecular target: Env of HIV isolate BG505.W6M.C2 (clade A) (HIV)
[21] = molecular target: HIV Env of isolate CAP256.206.C9 (HIV)
[22] = molecular target: Env of HIV isolate 242-14 (clade AG) (HIV)
[23] = molecular target: Env of HIV isolate 7165.18 (clade B) (HIV)
[24] = molecular target: HIV Env of isolate ZM197.7 (HIV)
[25] = molecular target: Env of HIV isolate 00836-2.5 (clade C) (HIV)
[26] = molecular target: Env of HIV isolate CH117.4 (clade BC) (HIV)
[27] = molecular target: Env of HIV isolate T280-5 (clade AG) (HIV)
[28] = molecular target: HIV Env of isolate ZM176.66 (HIV)
[29] = molecular target: Env of HIV isolate 6095.v1.c10 (clade ACD) (HIV)
[30] = molecular target: Env of HIV isolate 3873.v1.c24 (clade C) (HIV)
[31] = molecular target: Env of HIV isolate UG037.8 (clade A) (HIV)
[32] = molecular target: Env of HIV isolate TH976.17 (clade AE) (HIV)
[33] = molecular target: Env of HIV isolate ADA.DG (clade B) (HIV)
[34] = molecular target: Env of HIV isolate CNE58 (clade C in Table 7) (HIV)
[35] = molecular target: HIV Env of isolate 6644.v2.c33 (HIV)
[36] = molecular target: Env of HIV isolate DU422.01 (clade C) (HIV)
[37] = molecular target: Env of HIV isolate C4118.09 (clade AE) (HIV)
[38] = molecular target: Env of HIV isolate CNE20 (clade BC) (HIV)
[39] = molecular target: HIV Env of isolate UG021.16 (HIV)
[40] = molecular target: Env of HIV isolate CNE8 (clade AE) (HIV)
[41] = molecular target: Env of HIV isolate DU156.12 (clade C) (HIV)
[42] = molecular target: HIV Env of isolate 0921.v2.c14 (HIV)
[43] = molecular target: HIV Env of isolate 3637.v5.c3 (HIV)

B1: ePGT121.18 (ePGT121.18.H1 VH and ePGT121.17.L1 VL) (antibody, V domains shown)
VH: QMQLQESGPGLVKPGETLSLTCSVSGASISSSYWSWLRETPGKGLEWIGYTHHSGDTNYAPSLKSRVHLGLHPSKNQVSLSLTSVTAADTAVYYCARTLHGRRIYGVVAFNEYYTYFYWPTWGKGTQVTVSS
VL: SDISVAPGETVRITCGGESIGSRAVQWYQHRPGQAPRLIIYNNQDRPPGIPERFSGSPDIDFGTTATLTISNVEAGDEATYYCHIWDSRRPTNWELGPGTTLTVL
IC50, pseudovirus neutralization [1]: 0.003 µg/mL
IC50, pseudovirus neutralization [2]: 0.003 µg/mL
IC50, pseudovirus neutralization [3]: 7.26 µg/mL
IC50, pseudovirus neutralization [4]: 0.003 µg/mL
IC50, pseudovirus neutralization [5]: 0.002 µg/mL
IC50, pseudovirus neutralization [6]: 0.015 µg/mL
IC50, pseudovirus neutralization [7]: 0.054 µg/mL
IC50, pseudovirus neutralization [8]: > 50 µg/mL
IC50, pseudovirus neutralization [9]: 0.006 µg/mL
IC50, pseudovirus neutralization [10]: 0.001 µg/mL
IC50, pseudovirus neutralization [11]: > 50 µg/mL
IC80, pseudovirus neutralization (M1) [12]: 0.078 µg/mL
IC80, pseudovirus neutralization (M2) [12]: 0.106 µg/mL
IC80, pseudovirus neutralization (M1) [13]: 0.01 µg/mL
IC80, pseudovirus neutralization (M2) [13]: 0.013 µg/mL
IC50, pseudovirus neutralization [14]: 0.001 µg/mL
% vs Neutralized, IC50 < 0.01 ug/ml [15]: 56%
% vs Neutralized, IC50 < 0.1 ug/ml [15]: 66%
% vs Neutralized, IC50 < 1.0 ug/ml [15]: 71%
% vs Neutralized, IC50 < 10 ug/ml [15]: 76%
% vs Neutralized, IC50 < 50 ug/ml [15]: 78%
% vs Neutralized, IC80 < 0.01 ug/ml (M1) [15]: 43.8%
% vs Neutralized, IC80 < 0.01 ug/ml (M2) [15]: 38.5%
% vs Neutralized, IC80 < 0.1 ug/ml (M1) [15]: 60.6%
% vs Neutralized, IC80 < 0.1 ug/ml (M2) [15]: 59.6%
% vs Neutralized, IC80 < 1.0 ug/ml (M1) [15]: 65.9%
% vs Neutralized, IC80 < 1.0 ug/ml (M2) [15]: 65.9%
% vs Neutralized, IC80 < 10 ug/ml (M1) [15]: 70.7%
% vs Neutralized, IC80 < 10 ug/ml (M2) [15]: 69.7%
% vs Neutralized, IC80 < 50 ug/ml (M1) [15]: 73.1%
% vs Neutralized, IC80 < 50 ug/ml (M2) [15]: 72.6%
Geometric Mean (IC50) [15]: 0.0081 µg/mL
Geometric Mean IC80 (M1) [15]: 0.0177 µg/mL
Geometric Mean IC80 (M2) [15]: 0.0202 µg/mL
Median IC50 [15]: 0.003 µg/mL
Median IC80 (M1) [15]: 0.007 µg/mL
Median IC80 (M2) [15]: 0.008 µg/mL
Total VS Neutralized, IC50 < 0.01 ug/ml (viruses of 208) [15]: 116
Total VS Neutralized, IC50 < 0.1 ug/ml (viruses of 208) [15]: 137
Total VS Neutralized, IC50 < 1.0 ug/ml (viruses of 208) [15]: 148
Total VS Neutralized, IC50 < 10 ug/ml (viruses of 208) [15]: 159
Total VS Neutralized, IC50 < 50 ug/ml (viruses of 208) [15]: 162
Total VS Neutralized, IC80 < 0.01 ug/ml (M1) (viruses of 208) [15]: 91
Total VS Neutralized, IC80 < 0.01 ug/ml (M2) (viruses of 208) [15]: 80
Total VS Neutralized, IC80 < 0.1 ug/ml (M1) (viruses of 208) [15]: 126
Total VS Neutralized, IC80 < 0.1 ug/ml (M2) (viruses of 208) [15]: 124
Total VS Neutralized, IC80 < 1.0 ug/ml (M1) (viruses of 208) [15]: 137
Total VS Neutralized, IC80 < 1.0 ug/ml (M2) (viruses of 208) [15]: 137
Total VS Neutralized, IC80 < 10 ug/ml (M1) (viruses of 208) [15]: 147
Total VS Neutralized, IC80 < 10 ug/ml (M2) (viruses of 208) [15]: 145
Total VS Neutralized, IC80 < 50 ug/ml (M1) (viruses of 208) [15]: 152
Total VS Neutralized, IC80 < 50 ug/ml (M2) (viruses of 208) [15]: 151
IC80, pseudovirus neutralization (M1) [16]: 0.049 µg/mL
IC80, pseudovirus neutralization (M2) [16]: 0.078 µg/mL
IC80, pseudovirus neutralization (M1) [17]: 0.023 µg/mL
IC80, pseudovirus neutralization (M2) [17]: 0.026 µg/mL
IC50, pseudovirus neutralization [18]: 0.003 µg/mL
IC50, pseudovirus neutralization [19]: 0.002 µg/mL
IC50, pseudovirus neutralization [20]: 0.014 µg/mL
IC80, pseudovirus neutralization (M1) [21]: 0.003 µg/mL
IC80, pseudovirus neutralization (M2) [21]: 0.004 µg/mL
IC50, pseudovirus neutralization [22]: 17.3 µg/mL
IC50, pseudovirus neutralization [23]: 0.001 µg/mL
IC80, pseudovirus neutralization (M1) [24]: > 50 µg/mL
IC80, pseudovirus neutralization (M2) [24]: > 50 µg/mL
IC50, pseudovirus neutralization [25]: 14.4 µg/mL
IC50, pseudovirus neutralization [26]: > 50 µg/mL
IC50, pseudovirus neutralization [27]: 0.002 µg/mL
IC80, pseudovirus neutralization (M1) [28]: 0.091 µg/mL
IC80, pseudovirus neutralization (M2) [28]: 0.106 µg/mL
IC50, pseudovirus neutralization [29]: 0.006 µg/mL
IC50, pseudovirus neutralization [30]: 0.003 µg/mL
IC50, pseudovirus neutralization [31]: 0.002 µg/mL
IC50, pseudovirus neutralization [32]: > 50 µg/mL
IC50, pseudovirus neutralization [33]: 0.002 µg/mL
IC50, pseudovirus neutralization [34]: 0.016 µg/mL
IC80, pseudovirus neutralization (M1) [35]: 0.005 µg/mL
IC80, pseudovirus neutralization (M2) [35]: 0.006 µg/mL
IC50, pseudovirus neutralization [36]: 0.006 µg/mL
IC50, pseudovirus neutralization [37]: > 50 µg/mL
IC50, pseudovirus neutralization [38]: 0.001 µg/mL
IC80, pseudovirus neutralization (M1) [39]: 0.02 µg/mL
IC80, pseudovirus neutralization (M2) [39]: 0.019 µg/mL
IC50, pseudovirus neutralization [40]: > 50 µg/mL
IC50, pseudovirus neutralization [41]: 0.001 µg/mL
IC80, pseudovirus neutralization (M1) [42]: 1.03 µg/mL
IC80, pseudovirus neutralization (M2) [42]: 1.49 µg/mL
IC80, pseudovirus neutralization (M1) [43]: > 50 µg/mL
IC80, pseudovirus neutralization (M2) [43]: > 50 µg/mL
